Reference: patent US8053415B2, “Compounds having RD targeting motifs” (Washington University in St. Louis, priority 2005, dated 2011)
Entries after “also recorded” stand apart in the source; their conditions may differ. Where a SMILES comes first, the peptide text is derived from it.

How the values were obtained:
[1] = Absorption and emission spectral properties in 20% aqueous DMSO; type: physicochemical
Description: The spectral properties of cypate and the cypate-peptide conjugates were determined in 20% aqueous DMSO, which solubilizes all the compounds. […] Absorbance measurements were performed with a Beckman Coulter DU 640 spectrophotometer. The fluorescence spectra were recorded on Fluorolog-3 fluorometer (HORIBA Jobin Yvon Inc., Edison, N.J.). To prepare the stock solutions, a high precision analytical balance was used to weigh >2 mg of each compound, which was dissolved in DMSO. The DMSO solutions were then diluted with water to obtain a final solution of 20% aqueous DMSO. An aliquot (known volume) of the solution was transferred to a cuvette with 1 μL precision micropipettes and diluted with 20% aqueous DMSO solvent mixture to give a working solution that absorbs at <1.0 absorbance unit. Aliquots of the working solution were diluted with 20% aqueous DMSO and used to determine the molar absorptivity of each compound. For fluorescence measurements, probe solutions with 0.1 absorbance units were used to minimize inner filter effects.
Previous studies have shown that this solvent mixture boosts fluorescence intensity and is well tolerated by rodents. Additionally, the dyes and their peptide conjugates are soluble in this solvent mixture, providing a common medium for spectral measurements.
Absorbance spectra were measured on a Beckman Coulter DU 640 UV-Visible spectrophotometer. Fluorescence spectra were recorded on a HORIBA Jobin Yvon Fluorolog-3 fluorometer. Stock solutions (1.0 mM) of the conjugates were prepared by dissolving each sample in 80% aqueous DMSO. UV-Vis and fluorescence measurements were carried out by adding 5.0 μL of the stock solutions via a micropipette into 3 mL of 20% aqueous DMSO in a quartz cuvette.

[2] = test system: A549 cell membranes (ABI); test: ABI binding assay using A549 cell membranes; design: species or system human; settings: compared with purified ABI
Description: [SEQ ID NO:1] as the target receptor, tracer, and reference standard, respectively. Echistatin is a polypeptide that binds purified ABI specifically and irreversibly and the radiolabeled analogue is used widely in ABI binding assays. […] Because of the rearrangement of the RGD peptide sequence, the low binding of cypate-GRD peptide to ABI was expected.

[3] = test system: αv, β3, αvβ3 and αIIBβ3 integrins in A549 cells; test: Immunostaining of integrins in treated and untreated cells; type: cell-based, human; settings: relative to PBS-treated cells
Description: To confirm the receptors that mediate internalization of cypate-GRD in A549 cells, the levels of αv, αIIb, β3, αvβ3, and αIIBβ3 in treated and untreated cells were assessed by immunostaining. Cells were grown on Lab-Tek slides and fixed in 3% paraformaldehyde in PBS for 30 min. After washing three times for 5 min each in PBS, the cells were blocked to mask nonspecific binding sites with PBS containing 1% normal goat serum (blocking solution) for 1 h. Primary antibodies of mouse anti-human αv or β3 integrin antibodies (Chemicon International, Temecula, Calif.) or antihuman αIIBβ3 (GeneTex, Inc., South Bend, Ind.) diluted 1:500 (v/v) in blocking solution were added to each well and incubated overnight at 4° C. After washing three times for 10 min each in PBS, cells were incubated for 1 h with diluted biotinylated-anti-mouse IgG antibody in blocking solution. After washing, antigens were detected with avidin-horseradish peroxidase conjugate and diamino benzidine (Vector Laboratories, Burlingame, Calif.). Slides were counterstained with Mayers Hematoxylin, and the cover slips were mounted for microscopic examination.

A549 cells = test: MTT cytotoxicity assay; type: cell-based, human; settings: up to 100 μM solution in 20% aqueous DMSO, 24 h
Description: Cytotoxicity assays were performed using the 3-(4,5-dimethylthiazol-2-yl)-2,5-diphenyltetrazolium bromide (MTT) based in vitro toxicology assay kit (Sigma-Aldrich, St. Louis, Mo.) per the manufacturer's protocol. Briefly, A549 cells were grown in 96 well plates to 75% confluence in phenol red free Dulbecco's Modified Eagle's Medium supplemented with 10% fetal calf serum, 100 units/mL penicillin and 100 units/mL streptomycin. A concentration range (0-125 μM) of the compound to be tested was added to each well in a final volume of 100 μL/well and the cells were incubated for 24 h at 37° C. in 5% CO2. After incubation, the medium was removed and replaced with 100 μL/well phenol red free medium. Absorbances at 570 nm and 690 nm were measured. MTT (10 μL) was added to each well and the cells were incubated for 2 h. […] Absorbance at 570 nm and 690 nm were measured. The Δ570 and Δ690 were determined by taking the difference of the absorbances before and after the addition of MTT. The percent of viable cells, B, was determined according to the formula:
[formula] where λΔ570 was the absorbance of formazan crystals at 570 nm and λΔ690 was background at 690 nm.
The conventional MTT protocol typically involves background subtraction at 690 nm from the absorbance at 570 nm. […] To circumvent this problem, the background absorbance at 690 nm was adjusted by running parallel experiments with and without MTT. […]

CC1(C)C(/C=C/C=C/C=C/C=C2/N(CCC(=O)NCC(=O)N[C@@H](CCCNC(=N)N)C(=O)N[C@@H](CC(=O)O)C(=O)N[C@@H](CO)C(=O)N3CCC[C@H]3C(=O)N[C@@H](CCCCN)C(=O)O)c3ccc4ccccc4c3C2(C)C)=[N+](CCC(=O)O)c2ccc3ccccc3c21 [Cyp-GRD, Cypate-GRDSPK] (HELM PEPTIDE1{[CC1(C)C(/C=C/C=C/C=C/C=C2/N(CCC(=O)[*:2])c3ccc4ccccc4c3C2(C)C)=[N+](CCC(=O)O)c2ccc3ccccc3c21].G.R.D.S.P.K}$$$$V2.0)
^abεmax [1]: 237,680 cm^−1Mol^−1
^abλmax [1]: 789 nm
^emλmax [1]: 813 nm
ABI binding affinity using A549 cell membranes [2]: No improvement in the ABI binding affinity
staining of A549 cells with anti-αv, anti-β3, anti-αvβ3 and anti-αIIBβ3 antibodies after preincubation [3]: reduced staining
cell proliferation or cytotoxicity (percent of viable cells, MTT) (A549 cells): did not induce cell proliferation or cytotoxicity; also recorded: not cytotoxic
